T1: HiBiT-tagged human FZD4 (human, UniProt Q9ULV1 37-537)
T1 construct: the receptor's own signal peptide is probably replaced; also called HiBiT-FZD4; WT FZD4; source: HEK293A, transiently transfected, on live cells; not shown: HiBiT, N-terminal, kept
T1 sequence (looked up): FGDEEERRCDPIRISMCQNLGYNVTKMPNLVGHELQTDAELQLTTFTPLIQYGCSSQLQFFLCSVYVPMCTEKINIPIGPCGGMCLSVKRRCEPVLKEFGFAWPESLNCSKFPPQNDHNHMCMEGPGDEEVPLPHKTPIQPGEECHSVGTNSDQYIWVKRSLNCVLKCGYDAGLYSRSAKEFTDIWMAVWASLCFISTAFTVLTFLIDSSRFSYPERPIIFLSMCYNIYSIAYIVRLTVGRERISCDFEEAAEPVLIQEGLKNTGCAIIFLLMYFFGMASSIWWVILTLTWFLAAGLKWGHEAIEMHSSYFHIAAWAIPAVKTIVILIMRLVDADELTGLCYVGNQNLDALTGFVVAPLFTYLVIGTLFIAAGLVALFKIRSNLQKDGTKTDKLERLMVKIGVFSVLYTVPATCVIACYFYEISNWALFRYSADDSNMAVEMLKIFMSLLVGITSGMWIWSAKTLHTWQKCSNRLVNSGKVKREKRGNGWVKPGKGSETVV


biological target: T1, HiBiT-tagged human FZD4; test: FRET or BRET; NanoBiT/BRET competition binding on live HEK293A cells with HiBiT-FZD4: 30 min preincubation with purified untagged WNT at 37 °C, then eGFP-WNT-3A to 0.4 nM for 240 min, then LgBiT and furimazine; pKi by Cheng-Prusoff; settings: one partner purified

0.4 nM eGFP-WNT-3A binding displaced (%) | pKi | ΔBRET | Binder
58.4 | 8.9 | -0.001 | untagged human WNT-11 (ligand, UniProt O96014 25-354, looked up, WNT-11, human, untagged recombinant protein; source: bought: RnD Systems/Biotechne, purified) IKWLALSKTPSALALNQTQHCKQLEGLVSAQVQLCRSNLELMHTVVHAAREVMKACRRAFADMRWNCSSIELAPNYLLDLERGTRESAFVYALSAAAISHAIARACTSGDLPGCSCGPVPGEPPGPGNRWGGCADNLSYGLLMGAKFSDAPMKVKKTGSQANKLMRLHNSEVGRQALRASLEMKCKCHGVSGSCSIRTCWKGLQELQDVAADLKTRYLSATKVVHRPMGTRKHLVPKDLDIRPVKDSELVYLQSSPDFCMKNEKVGSHGTQDRQCNKTSNGSDSCDLMCCGRGYNPYTDRVVERCHCKYHWCCYVTCRRCERTVERYVCK
34.5 | 7.87 | -0.001 | untagged human WNT-10B (ligand, WNT-10B, human, untagged recombinant protein; source: bought: RnD Systems/Biotechne, purified) not shown
40.8 | 7.26 | -0.002 | untagged human WNT-3A (ligand, UniProt P56704 19-352, looked up, WNT-3A, human, untagged recombinant protein; source: bought: RnD Systems/Biotechne, purified) SYPIWWSLAVGPQYSSLGSQPILCASIPGLVPKQLRFCRNYVEIMPSVAEGIKIGIQECQHQFRGRRWNCTTVHDSLAIFGPVLDKATRESAFVHAIASAGVAFAVTRSCAEGTAAICGCSSRHQGSPGKGWKWGGCSEDIEFGGMVSREFADARENRPDARSAMNRHNNEAGRQAIASHMHLKCKCHGLSGSCEVKTCWWSQPDFRAIGDFLKDKYDSASEMVVEKHRESRGWVETLRPRYTYFKVPTERDLVYYEASPNFCEPNPETGSFGTRDRTCNVSSHGIDGCDLLCCGRGHNARAERRREKCRCVFHWCCYVSCQECTRVYDVHTCK
78.3 | 6.93 | -0.004 | untagged human WNT-5B (ligand, UniProt Q9H1J7 18-359, looked up, WNT-5B, human, untagged recombinant protein; source: bought: RnD Systems/Biotechne, purified) QLLTDANSWWSLALNPVQRPEMFIIGAQPVCSQLPGLSPGQRKLCQLYQEHMAYIGEGAKTGIKECQHQFRQRRWNCSTADNASVFGRVMQIGSRETAFTHAVSAAGVVNAISRACREGELSTCGCSRTARPKDLPRDWLWGGCGDNVEYGYRFAKEFVDAREREKNFAKGSEEQGRVLMNLQNNEAGRRAVYKMADVACKCHGVSGSCSLKTCWLQLAEFRKVGDRLKEKYDSAAAMRVTRKGRLELVNSRFTQPTPEDLVYVDPSPDYCLRNESTGSLGTQGRLCNKTSEGMDGCELMCCGRGYNQFKSVQVERCHCKFHWCCFVRCKKCTEIVDQYICK
78.4 | 7.08 | -0.004 | untagged human/mouse WNT-5A (ligand, UniProt P41221 62-380, looked up, WNT-5A, printed as human/mouse, untagged recombinant protein; human WNT-5A is P41221; source: bought: RnD Systems/Biotechne, purified) IIGAQPLCSQLAGLSQGQKKLCHLYQDHMQYIGEGAKTGIKECQYQFRHRRWNCSTVDNTSVFGRVMQIGSRETAFTYAVSAAGVVNAMSRACREGELSTCGCSRAARPKDLPRDWLWGGCGDNIDYGYRFAKEFVDARERERIHAKGSYESARILMNLHNNEAGRRTVYNLADVACKCHGVSGSCSLKTCWLQLADFRKVGDALKEKYDSAAAMRLNSRGKLVQVNSRFNSPTTQDLVYIDPSPDYCVRNESTGSLGTQGRLCNKTSEGMDGCELMCCGRGYDQFKTVQTERCHCKFHWCCYVKCKKCTEIVDQFVCK

biological target: T2, eGFP-tagged mouse WNT-3A (mouse, UniProt P27467 19-352); test: FRET or BRET; NanoBiT/BRET saturation binding on live HEK293A cells (setup 1): eGFP-WNT-3A conditioned medium 16.7 pM to 16.7 nM, 5% FBS, 10 mM HEPES, 240 min at 37 °C, then LgBiT and furimazine for 10 min; one-site specific model (normalised logarithmic fits for pKd); settings: partners not purified
T2 construct: WNT-3A, mouse, eGFP-tagged, secreted into conditioned medium; Co-expressed with His-Afamin, which may accompany the WNT in the medium; Two batches (16.7 nM and 16.2 nM); also called eGFP-WNT-3A; eGFP-Wnt-3A; source: HEK293F suspension cells, cotransfected with pCS2+-eGFP-WNT-3A and pCMV-His-Afamin; conditioned medium, concentrated 5-fold and medium-exchanged (not purified)

Binder | Kd [nM]
FZD4-CD86 chimeric protein (HiBiT-tagged) (receptor) FGDEEERRCDPIRISMCQNLGYNVTKMPNLVGHELQTDAELQLTTFTPLIQYGCSSQLQFFLCSVYVPMCTEKINIPIGPCGGMCLSVKRRCEPVLKEFGFAWPESLNCSKFPPQNDHNHMCMEGPGDEEVPLPHKTPIQPGEECHSVGTNSDQYIWVKRSLNCVLKCGYDAGLYS | 142
FZD8-CD86 chimeric protein (HiBiT-tagged) (receptor) ASAKELACQEITVPLCKGIGYNYTYMPNQFNHDTQDEAGLEVHQFWPLVEIQCSPDLKFFLCSMYTPICLEDYKKPLPPCRSVCERAKAGCAPLMRQYGFAWPDRMRCDRLPEQGNPDTLCMDYNRTDLTTAAPSPPRRLPPPPPGEQPPSGSGHGRPPGARPPHRGGGRGGGGGDAAAPPARGGGGGGKARPPGGGAAPCEPGCQCRAPMVSVSSERHPLYNRVKTGQIANCALPCHNPFFSQDERA | 22.9

Next, values leading:

Kd [nM] | Binder
3.5 | FZD4-FZD6 chimeric protein (receptor) FGDEEERRCDPIRISMCQNLGYNVTKMPNLVGHELQTDAELQLTTFTPLIQYGCSSQLQFFLCSVYVPMCTEKINIPIGPCGGMCLSVKRRCEPVLKEFGFAWPESLNCSKFPPQNDHNHMCMEGPGDEEVPLPHKTPIQPGEECHSVGTNSDQYIWVKRSLNCVLKCGYDAGLYSIGTVSIFCLCATLFTFLTFLIDVRRFRYPERPIIYYSVCYSIVSLMYFIGFLLGDSTACNKADEKLELGDTVVLGSQNKACTVLFMLLYFFTMAGTVWWVILTITWFLAAGRKWSCEAIEQKAVWFHAVAWGTPGFLTVMLLAMNKVEGDNISGVCFVGLYDLDASRYFVLLPLCLCVFVGLSLLLAGIISLNHVRQVIQHDGRNQEKLKKFMIRIGVFSGLYLVPLVTLLGCYVYEQVNRITWEITWVSDHCRQYHIPCPYQAKAKARPELALFMIKYLMTLIVGISAVFWVGSKKTCTEWAGFFKRNRKRDPISESRRVLQESCEFFLKHNSKVKHKKKHYKPSSHKLKVISKSMGTSTGATANHGTSAVAITSHDYLGQETLTEIQTSPETSMREVKADGASTPRLREQDCGEPASPAASISRLSGEQVDGKGQAGSVSESARSEGRISPKSDITDTGLAQSNNLQVPSSSEPSSLKGSTSLLVHPVSGVRKEQGGGCHSDT
5.8 | FZD6-FZD4 chimeric protein (receptor) HSLFTCEPITVPRCMKMAYNMTFFPNLMGHYDQSIAAVEMEHFLPLANLECSPNIETFLCKAFVPTCIEQIHVVPPCRKLCEKVYSDCKKLIDTFGIRWPEELECDRLQYCDETVPVTFDPHTEFLGPQKKTEQVQRDIGFWCPRHLKTSGGQGYKFLGIDQCAPPCPNMYFKSDELEFAKSFMAVWASLCFISTAFTVLTFLIDSSRFSYPERPIIFLSMCYNIYSIAYIVRLTVGRERISCDFEEAAEPVLIQEGLKNTGCAIIFLLMYFFGMASSIWWVILTLTWFLAAGLKWGHEAIEMHSSYFHIAAWAIPAVKTIVILIMRLVDADELTGLCYVGNQNLDALTGFVVAPLFTYLVIGTLFIAAGLVALFKIRSNLQKDGTKTDKLERLMVKIGVFSVLYTVPATCVIACYFYEISNWALFRYSADDSNMAVEMLKIFMSLLVGITSGMWIWSAKTLHTWQKCSNRLVNSGKVKREKRGNGWVKPGKGSETVV
2.9 | FZD4-FZD8 chimeric protein (receptor) FGDEEERRCDPIRISMCQNLGYNVTKMPNLVGHELQTDAELQLTTFTPLIQYGCSSQLQFFLCSVYVPMCTEKINIPIGPCGGMCLSVKRRCEPVLKEFGFAWPESLNCSKFPPQNDHNHMCMEGPGDEEVPLPHKTPIQPGEECHSVGTNSDQYIWVKRSLNCVLKCGYDAGLYSFTVFWIGLWSVLCFVSTFATVSTFLIDMERFKYPERPIIFLSACYLFVSVGYLVRLVAGHEKVACSGGAPGAGGAGGAGGAAAGAGAAGAGAGGPGGRGEYEELGAVEQHVRYETTGPALCTVVFLLVYFFGMASSIWWVILSLTWFLAAGMKWGNEAIAGYSQYFHLAAWLVPSVKSIAVLALSSVDGDPVAGICYVGNQSLDNLRGFVLAPLVIYLFIGTMFLLAGFVSLFRIRSVIKQQDGPTKTHKLEKLMIRLGLFTVLYTVPAAVVVACLFYEQHNRPRWEATHNCPCLRDLQPDQARRPDYAVFMLKYFMCLVVGITSGVWVWSGKTLESWRSLCTRCCWASKGAAVGGGAGATAAGGGGGPGGGGGGGPGGGGGPGGGGGSLYSDVSTGLTWRSGTASSVSYPKQMPLSQV
